# From the RNAGym collection of RNA variant scans (doi:10.1073/pnas.2313332121)
# This sample holds only a part of the variants without activity.
# B1: TPR 5TU (parent)
# chain: GGAUCUUCUCGAUCUAACAAAAAAGACAAAUCUGCCACAAAGCUUGAGAGCAUCUUCGGAUGCAGAGGCGGCAGCCUUCGGUGGCGCGAUAGCGCCAACGUUCUCAACUAUGACACGCAAAACGCGUGCUCCGUUGAAUGGAGUUUAUCAUG
# Variants of: B1
# Test: polymerase ribozyme fitness, log enrichment relative to wild type (log ratio); higher = more active; in vitro selection for triplet polymerase activity
# How it was run: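 Fitness compares each genotype's enrichment to that of the wild type on a logarithmic scale, averaging replicates with inverse-variance weights. The logarithm is base 2. Enrichment came from Illumina sequencing of input and output libraries after one triplicate round of in vitro selection, which included frozen incubation at −7 °C, of PCR-built, transcribed mutant libraries of each subunit of a heterodimeric triplet polymerase ribozyme. Only genotypes with ≥10 input reads and ≥1 read per output were kept.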
row,Variant,polymerase ribozyme fitness (log ratio)
1,GGAUCUUCUCGAUCUAACAAAAAAGACAAAUCUGCCACAAAGCUUGAGAGCAUCUUCGGAUGCAGAGGCGGCAGCCUUCGGUAGCGCGAUAGCGCCUUCGUUCUCAACUAUGACACGCAAAACGCGUGCUCCGUUGAUUGGAGUUUAUCAUG [G83A A97U A98U A138U],-4.07
2,GGAUCUUCUCGAUCUAACAAAAAAGACAAAUCUGCCACAAAGCUUGAGAGCAUCUUCGGAUGCAGAGGCGGCAGCCUUCGGGGGCGCGAUAGCGCAAACGUUCUCAACUAUGACACGCAAAACGCGUGCUCCGUUGAAUGGAGUUUAUCAUG [U82G C96A],0.287
3,GGAUCUUCUCGAUCUAACAAAAAAGACAAAUCUGCCACAAAGCUUGAGAGCAUCUUCGGAUGCAGAGGCGGCAGCCUUCGGGGGCGCGAUAGCGCUAACGUUCUCAACUAUGACACGCAAAACGCGUGCUCCGUUGAAUGGAGUUUAUCAUG [U82G C96U],-2.13
4,GGAUCUUCUCGAUCUAACAAAAAAGACAAAUCUGCCACAAAGCUUGAGAGCAUCUUCGGAUGCAGAGGCGGCAGCCUUCGGGGGCGCGAUAGCGACAACGUUCUCAACUUUGACACGCAAAACGCGUGCUCCGUUGAUUGGAGUUUAUCAUG [U82G C95A A110U A138U],≤ -4.2
5,GGAUCUUCUCGAUCUAACAAAAAAGACAAAUCUGCCACAAAGCUUGAGAGCAUCUUCGGAUGCAGAGGCGGCAGCCUUCGGGGGCGCGAUAGCGCCAACGUUCUCAACUAUGACACGGAAAACGCGUGCUCCGUUGAAUGGAGUUUAUCAUG [U82G C118G],-1.09
6,GGAUCUUCUCGAUCUAACAAAAAAGACAAAUCUGCCACAAAGCUUGAGAGCAUCUUCGGAUGCAGAGGCGGCAGCCUUCGGGGGCGCGAUAGCUCCAACGUUCUCAACUAUGACACGCAAAACGCGUGCUCCGUUGAAUGGAGUUUAUCAUG [U82G G94U],-0.833
7,GGAUCUUCUCGAUCUAACAAAAAAGACAAAUCUGCCACAAAGCUUGAGAGCAUCUUCGGAUGCAGAGGCGGCAGCCUUCGGGGGCGCGAUAGCGCGAACGUUCUCAACUAUGACACGUAAAACGCGUGCUCCGUUGAAUGAAGUUUUUCAUG [U82G C96G C118U G141A A147U],-1.93
8,GGAUCUUCUCGAUCUAACAAAAAAGACAAAUCUGCCACAAAGCUUGAGAGCAUCUUCGGAUGCAGAGGCGGCAGCCUUCGGGGGCUCGAUAGCGCCAACGUUCUCAACUAUGACACGCAAAAUGCGUGCUCCGUUGAAUGGAGUUUAUCAUG [U82G G86U C123U],-1.47
9,GGAUCUUCUCGAUCUAACAAAAAAGACAAAUCUGCCACAAAGCUUGAGAGCAUCUUCGGAUGCAGAGGCGGCAGCCUUCGGGGGCGCGAUAGCGCCAACUUUCUCAACUAUGACACGCAAAACGCGUACUCCGUUGAAUGGAGUUUAUCAUG [U82G G100U G128A],≤ -4.2
10,GGAUCUUCUCGAUCUAACAAAAAAGACAAAUCUGCCACAAAGCUUGAGAGCAUCUUCGGAUGCAGAGGCGGCAGCCUUCGGGGGCACGAUAGCGCCAACGUUCUCAACUAUGACACGCAGAACGCGUGCUCCGUUGAAUGGAGUUUAUCAUG [U82G G86A A120G],-1.53
11,GGAUCUUCUCGAUCUAACAAAAAAGACAAAUCUGCCACAAAGCUUGAGAGCAUCUUCGGAUGCAGAGGCGGCAGCCUUCGGUAGCGCGAUAGCGCCAUCGUUCUCAACUAUGACACGCAAAACGCGUGCUCCGUUGAAUGGAGUUUAUCAUG [G83A A98U],-0.299
12,GGAUCUUCUCGAUCUAACAAAAAAGACAAAUCUGCCACAAAGCUUGAGAGCAUCUUCGGAUGCAGAGGCGGCAGCCUUCGGGGGCACGAUAGCGCAAACGUUCUCAACUAUGACACGCAAAACGCGUGCUCCGUUGAAUGGAGUUUAUCAUG [U82G G86A C96A],-2.04
13,GGAUCUUCUCGAUCUAACAAAAAAGACAAAUCUGCCACAAAGCUUGAGAGCAUCUUCGGAUGCAGAGGCGGCAGCCUUCGGUAGCGCGAUCGCGCCAACGUUCUCAACUAUGACACGCAAAACGCGUGCUCCGUUGAAUGGGGUUUAUCAUG [G83A A91C A142G],≤ -4.2
14,GGAUCUUCUCGAUCUAACAAAAAAGACAAAUCUGCCACAAAGCUUGAGAGCAUCUUCGGAUGCAGAGGCGGCAGCCUUCGGGGGCACGAUAGCGCCAACGUUCUCAACUAUGACACGCAAAACGCGUGCUCCGUUGAAUGGAGUUUAUCAUG [U82G G86A],-0.594
15,GGAUCUUCUCGAUCUAACAAAAAAGACAAAUCUGCCACAAAGCUUGAGAGCAUCUUCGGAUGCAGAGGCGGCAGCCUUCGGGGGCUCGAUAGCGCCAACGUUCUCAACUAUGACACGCAAAACGCGUGCUCCGUUGAAUGGAGUUUAUCAUG [U82G G86U],-1.46
16,GGAUCUUCUCGAUCUAACAAAAAAGACAAAUCUGCCACAAAGCUUGAGAGCAUCUUCGGAUGCAGAGGCGGCAGCCUUCGGUAGCGCGAUAGCGCCCACGUUCACAACUAUGACACGCAAAACGCGUGCUCCGUUAAAUGGAGUUUAUCAUG [G83A A97C U104A G136A],-1.39
17,GGAUCUUCUCGAUCUAACAAAAAAGACAAAUCUGCCACAAAGCUUGAGAGCAUCUUCGGAUGCAGAGGCGGCAGCCUUCGGGGGCGCGAUAUCGCCAACGUUCUCAACUAUGACACGCAAAACGCGUGCUACGUUGAAUGGAGUUUAUCAUG [U82G G92U C131A],-3.24
18,GGAUCUUCUCGAUCUAACAAAAAAGACAAAUCUGCCACAAAGCUUGAGAGCAUCUUCGGAUGCAGAGGCGGCAGCCUUCGGGGGCGCGAUAGCGCCAAGGUUCUCAACUAUGACACGCAAAACGCGUGCUCCGUUGAAUGGAGUUUAUCAUG [U82G C99G],-0.787
19,GGAUCUUCUCGAUCUAACAAAAAAGACAAAUCUGCCACAAAGCUUGAGAGCAUCUUCGGAUGCAGAGGCGGCAGCCUUCGGGGGCGCGAUAGCGACAACGUUCUCAACUAUGACACGCAAAACGCGUGCUCCGUUGAAUGGAGUUUAUCAUG [U82G C95A],-1.03
